In patent US20030166027A1, “Compositions, test kits and methods for detecting helicobacter pylori” (priority 2002, published 2003):

B1: RPL7/L12 50S ribosomal protein L7/L12 (protein)
chain: MNISVNPYLMAVVFVVFVLLLWAMNVWVYRPLLAFMDNRQAEIKDSLAKIKTDNAQSVEIGHQIEALLKEAAEKRREIIAEAIQKATESYDAVIKQKENELNQEFEAFAKQLQNEKQALKEQLQAQMPVFEDELNKRVAMGLGS
notes: 15 kd H. pylori antigen band in whole cell lysate, identified as RPL7/L12
B2: Omp18-peptido-glycan associated lipoprotein precursor (protein)
chain: MKRSSVFSFLVAFLLVAGCSHKMDNKTVAGDVSAKTVQTAPVTTEPAPEKEEPKQEPAPVVEEKPAVESGTIIASIYFDFDKYEIKESDQETLDEIVQKAKENHMQVLLEGNTDEFGSSEYNQALGVKRTLSVKNALVIKGVEKDMIKTISFGETKPKCAQKTRECYKENRRVDVKLMK
notes: 30 kd H. pylori antigen band in whole cell lysate, identified as Omp18
B3: HP0596 a hypothetical protein (protein)
chain: MLEKSFLKSKQLFLCGLGVLMLQACTCPNTSQRNSFLQDVPYWMLQNRSEYITQGVDSSHIVDGKKTEEIEKIATKRATIRVAQNIVHKLKEAYLSKTNRIKQKITNEMFIQMTQPIYDSLMNVDRLGIYINPNNEEVFALVRARGFDKDALSEGLHKMSLDNQAVSILVAKVEEIFKDSVNYGDVKVPIAM
notes: 23 kd H. pylori antigen band in whole cell lysate, identified as HP0596
B4: HpaA-neuraminyl-lactose-hemagglutinin precursor (protein)
chain: MKKGSLAIVLGSLLASGAFYTALADGMPAKQQHNNTGESVELHFHYPIKGKQEPKNSHLVVLIEPKIEINKVIPESYQKEFEKSLFLQLSSFLERKGYSVSQFKDASEIPQDIKEKALLVLRMDGNVAILEDIVEESDALSEEKVIDMSSGYLNLNFVEPKSEDIIHSFGIDVSKIKAVIERVELRRTNSGGFVPKTFVHRIKETDHDQAIRKIMNQAYHKVMVHITKELSKKHMEHYEKVSSEMKKRK
notes: 32 kd H. pylori antigen band in whole cell lysate, identified as HpaA

Experiments:
[1] = system: specific serum IgG antibodies in sera from patients diagnosed with a H. pylori infection; assay: Quantitative Western-blot analysis (integrated optical density) of patient sera on H. pylori whole cell lysate antigens; type: binding, human; conditions: for average titer of specific antibodies / reduction of average titer: average of all strains (FIG. 4)
[2] = system: sera from H. pylori infected patients; assay: Immunoblot analysis of whole cell lysates with sera from H. pylori infected patients; type: binding, human; conditions: one serum of an infected patient (HS#0 12, table 1)
Procedure: The protein content of the bacterial lysates was determined by the method according to Lowry (Lowry et al., 1951) with bovine serum albumin as a standard. The lysates were dried in a speedVac concentrator. Afterwards the pellets were suspended in gel sample buffer (4% SDS, 12% glycerin, 4% β-mercaptoethanol, 0.01% Serva Blue G250 in 50 mM Tris/HCl pH 6.8) and boiled for 10 min. H. pylori and C. jejuni lysates were separated on 1.0 or 1.5 mm 7.5-16.5% SDS-tricine gradient gels (Schaegger and v. Jagow, 1987). Therefore a 7.5% and a 16.5% acrylamide solution for the separating gel and a 4% acrylamide solution for the stacking gel were prepared according to the scheme presented in table 3. Using a gradient-mixer the gel was poured slowly, but with continuous flow between the glass plates of the gel-sandwich. The separating gel was overlaid with deonized H2O and allowed to polymerize for 1 hr. Afterwards the water was removed, APS and TEMED was added to the stacking gel solution that was poured on top of the separating gel. A comb with the appropriate number of sample pockets was inserted and removed after polymerisation for 1 hr. The gel-sandwich was placed in an electrophoresis chamber half filled with bottom running buffer (0.2 M Tris-HCI, pH 8.9). […] The protein pattern after electrophoresis was determined by Silver staining (Heukeshoven, 1985) or Coomassie blue staining. […]

[3] = antigens from Hp02 (FIG. 3), sera 3 months post therapy
[4] = antigens from Hp02 (FIG. 3), sera 5 months post therapy
[5] = antigens from Hp02 (FIG. 3), sera before therapy, set as 100%
[6] = antigens from Hp08 (FIG. 2), sera 3 months post therapy
[7] = antigens from Hp08 (FIG. 2), sera 5 months post therapy
[8] = antigens from Hp08 (FIG. 2), sera before therapy, set as 100%
[9] = antigens from Hp504, first experiment (FIG. 1A), sera 3 months post therapy
[10] = antigens from Hp504, first experiment (FIG. 1A), sera 5 months post therapy
[11] = antigens from Hp504, first experiment (FIG. 1A), sera of 9 patients before therapy, set as 100%
[12] = antigens from Hp504, second experiment (FIG. 1B), sera 3 months post therapy
[13] = antigens from Hp504, second experiment (FIG. 1B), sera 5 months post therapy
[14] = antigens from Hp504, second experiment (FIG. 1B), sera before therapy, set as 100%
[15] = 3 months after eradication treatment
[16] = 5 months after end of treatment

| Molecule | % IOD [1, 3] | % IOD [1, 4] | % IOD [1, 5] [%] | % IOD [1, 6] | % IOD [1, 7] | % IOD [1, 8] [%] | % IOD [1, 9] | % IOD [1, 10] | % IOD [1, 11] [%] | % IOD [1, 12] | % IOD [1, 13] | % IOD [1, 14] [%] | average titer of specific antibodies [1, 15] [%] | reduction of average titer [1, 15] [%] | average titer of specific antibodies [1, 16] [%] | reduction of average titer [1, 16] [%] | reaction with serum HS#0 12 [2] |
| --- | --- | --- | --- | --- | --- | --- | --- | --- | --- | --- | --- | --- | --- | --- | --- | --- | --- |
| B1 | 36.29 +/− 14.99% | 11.39 +/− 4.27% | 100 | 28.60 +/− 13.85% | 9.96 +/− 4.99% | 100 | 37.86 +/− 8.98% | 15.37 +/− 6.68% | 100 | 46.17 +/− 16.87% | 19.77 +/− 11.11% | 100 | 31.61 | 68.39 | 14.12 | 85.88 | did not react |
| B2 | 50.71 +/− 11.48% | 21.56 +/− 6.44% | 100 | 62.53 +/− 10.32% | 40.77 +/− 4.45% | 100 | 32.08 +/− 6.48% | 20.71 +/− 12.72% | 100 | 53.58% | 41.28% | 100 | 49.73 | 50.27 | 31.08 | 68.92 |  |
| B3 | 35.86 +/− 11.88% | 13.51 +/− 5.02% | 100 | 23.05 +/− 7.53% | 11.36 +/− 4.45% | 100 | 33.88 +/− 10.59% | 23.81 +/− 7.83% | 100 | 52.37 +/− 12.72% | 34.77 +/− 9.61% | 100 | 36.29 | 63.71 | 28.87 | 79.13 |  |
| B4 | 32.30 +/− 13.97% | 8.70 +/− 3.2% | 100 | 48.11 +/− 8.15% | 21.06 +/− 8.01% | 100 | 41.61 +/− 9.25% | 15.15 +/− 4.20% | 100 | 32.15% | 27.2% | 100 | 38.5 | 61.5 | 18.03 | 81.97 |  |
